Experimental data from patent US20210386836.

Biological target: C3a, P01024
Sequence (P01024 672-748): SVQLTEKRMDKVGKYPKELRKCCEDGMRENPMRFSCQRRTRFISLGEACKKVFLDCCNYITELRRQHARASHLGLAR

B1: PrtISS-HT (protein)
chain: MRKKWVATAIIALASGSTVFLSQTSSVEAAIGETSVQNVKVSVAKNESDSQKFNNSQNLEQKTPQAAAANQNGSQVQNDHTETQLQNQQTTQSQVTQAHTEENNASSIPEPANQADHVKGNVQSAWDQGYKGQNTVVAVIDSGADTSHKDFQTMPSNPKLKQEDVQSKIDQQGYGKYVNEKFPYVYNYADRDNDYIKSDDNNQXNDSPHGQHVSGIIAADGHPEGDQQYVVGVAPEAQLMQLRVFGQFSDEKTDDVARAIYDATNLGADVIQMSLGQGVADQQLTNIEQKAVQYAIDHGVFVSISASNNGNSASVDNPSKVTAKGYGSGSEAGNYEPLNSGTVANPGASKNALTVAAETSGTGKDSDMASFSSWGPLSDFSLKPDLSAPGYQVVSTVNDNQYQTMSGTSMAGPFAAGSAALVIQRLKQTNPELKGAELVAATKALLMNSAKVQTQNGYTTPVSPRRQGAGQIDVGAATANPVYVTAADGTSSLSLRQVDEKTTFTLTFHNLTDQEQSYSFNDLGGGYTEQRDPDSGVFHEVQLAGAHVNGVGNFTLAPKEVKDLQYTLDLQGLNKNQPVEGWLHFTNDKDKSTVVVPYLAYYGDLTSENVFDQNANEEKPDIQGNRFVNENNYPLGVTDQESLKQLVNVDSDYNWQEVAKLYESGKVAFSPNDDHQSDLIKPYAYLKQNVKDLKVEILDAKGNVVRVVSDVQGVDKSYDESGVTKDASLSVSMRDNPDAFEWDGKVYDTKTGQMVTAPDGQYTYRFVATLWNEGPNQKQTADFPVVVDTQAPSLSVKYDSATHTLSGNYEDKGAGFTDYSYVTVQVNDKVFGYKLNEGESGFDNSEKTKGHFNFTLSSDALDALSGSLNKVSVTLSDVANNTTVKTVDVPAVKDQPAVSVWNATEGVEFNKNSKDYNKENDTYTLYGSAAQDFYLNGALVQVRDGKYEVPVKTTTQDLVFSTDQAGKNVLKSFTTFTPKAFFNWQNVDGFDGNFGVNIYSVKTNDPNNAVVQAAVPLGKNVKAYAQDYFTGEVYKGQVENGVATFHVHTSINQGEDGIFKRALLTGWSEVDGPAYNDKQVTSKAGVASSNHLGVYYTTDKVNRKVYTDRADLGVDVQDEAADLSSFGPTAYPGHALADLTTRTDPNPAIHFDYLNDNDTTRFGQNAVTDGYYDSVTKKFTVTGHVDPEVKSLTVLGDSSDENAPQNQVKLGKDGKFSFSFTTENVGQRPVAYIYTDQNGQKVRGTLNVVLDTVAPTLNVDQVNGNELEVKTNNPLFKLSGVVNDNLDGYRLYVNGNNIYREFLNSGYNKLAGLNTDGTDVNPYGPHNFEESFNLNDDNNQPTTHVFTIYVVDQVGNKVEKKIAVNYDPDYVAPRHHHHHH
modifications: not fully specified; X: residue not identified in the source
- proteolytic degradation assay (SDS-PAGE): displayed activity against hC3a
